Test results as given in patent EP4309676A1 (Emergence Therapeutics AG, dated 2024).
Values belong to the binder of their own block, whether it stands above or below them.

How the values were obtained:
[1] = target: T1, Nectin-4 extracellular domain Fc fusion recombinant protein (human, UniProt Q96NY8 32-349); experiment: ELISA, plate coated with Nec4-VCC, peroxidase-conjugated Ch-15A7.5 (FIG. 2)
T1 construct: extracellular domain; also called Nec4-VCC; Nectin-4-VCC-Fc; not shown: Fc part
T1 sequence (looked up): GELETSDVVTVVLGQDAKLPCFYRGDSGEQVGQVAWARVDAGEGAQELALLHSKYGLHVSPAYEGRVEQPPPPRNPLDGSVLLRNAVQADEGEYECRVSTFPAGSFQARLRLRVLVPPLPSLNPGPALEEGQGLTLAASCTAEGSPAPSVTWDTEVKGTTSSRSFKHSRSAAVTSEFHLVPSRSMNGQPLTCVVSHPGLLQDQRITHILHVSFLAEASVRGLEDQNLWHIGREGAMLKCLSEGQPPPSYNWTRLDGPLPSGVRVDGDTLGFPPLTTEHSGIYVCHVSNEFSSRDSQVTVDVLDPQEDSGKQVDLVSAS

[2] = target: T2, N-terminal Flag-tagged human Nectin-4 expressed on transfected MDA-MB231 cells (human, UniProt Q96NY8 32-510); experiment: flow cytometry on MDA-MB231 cells transfected with N-terminal Flag-tagged Nectin-4 (FIG. 1)
T2 construct: whole, on cells; also called PVRL4; not shown: N-terminal Flag tag
T2 sequence (looked up): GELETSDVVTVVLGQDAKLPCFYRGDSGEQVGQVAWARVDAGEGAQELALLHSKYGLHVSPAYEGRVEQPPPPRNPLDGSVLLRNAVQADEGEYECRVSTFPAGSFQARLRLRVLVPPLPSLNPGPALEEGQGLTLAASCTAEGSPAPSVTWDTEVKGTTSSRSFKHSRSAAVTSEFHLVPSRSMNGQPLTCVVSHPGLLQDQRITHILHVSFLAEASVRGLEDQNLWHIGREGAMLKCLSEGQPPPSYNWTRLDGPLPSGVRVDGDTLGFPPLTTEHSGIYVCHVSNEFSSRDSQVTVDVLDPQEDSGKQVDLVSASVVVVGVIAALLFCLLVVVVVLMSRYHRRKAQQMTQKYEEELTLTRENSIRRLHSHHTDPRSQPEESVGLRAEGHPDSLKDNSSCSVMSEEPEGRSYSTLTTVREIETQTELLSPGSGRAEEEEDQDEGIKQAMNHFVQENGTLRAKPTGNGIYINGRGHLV

[3] = target: T3, Nectin-1 extracellular domain Fc fusion recombinant protein (UniProt Q15223 31-355, limits assumed); experiment: ELISA, plate coated with Nec1-VCC, peroxidase-conjugated Ch-15A7.5 (FIG. 2)
T3 construct: extracellular domain; also called Nec1-VCC; Nectin-1-VCC-Fc; not shown: Fc part
T3 sequence (looked up): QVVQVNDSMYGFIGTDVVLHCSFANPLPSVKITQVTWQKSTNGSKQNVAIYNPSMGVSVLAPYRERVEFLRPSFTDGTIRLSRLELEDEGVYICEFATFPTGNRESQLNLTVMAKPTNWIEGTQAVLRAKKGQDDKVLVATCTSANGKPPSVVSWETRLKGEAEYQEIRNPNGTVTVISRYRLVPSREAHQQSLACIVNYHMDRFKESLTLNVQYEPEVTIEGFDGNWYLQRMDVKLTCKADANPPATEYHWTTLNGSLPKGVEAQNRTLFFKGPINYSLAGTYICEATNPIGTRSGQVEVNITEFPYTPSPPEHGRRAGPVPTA

[4] = target: T4, Nectin-4 IgV-like domain Fc fusion recombinant protein (human, UniProt Q96NY8 32-147, limits assumed); experiment: ELISA, plate coated with Nec4-V, peroxidase-conjugated Ch-15A7.5 (FIG. 2)
T4 construct: domain: IgV-like domain; also called Nec4-V; Nectin-4-V-Fc; not shown: Fc part
T4 sequence (looked up): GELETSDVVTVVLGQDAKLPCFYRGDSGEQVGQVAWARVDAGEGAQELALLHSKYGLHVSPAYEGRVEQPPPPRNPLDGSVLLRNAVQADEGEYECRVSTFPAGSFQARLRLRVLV

[5] = target: T5, human Nectin-4 on cells (CHO cells transfected with human Nectin-4 cDNA); normal differentiated human … (human, UniProt Q96NY8 32-510); experiment: flow cytometry on normal differentiated human keratinocytes (NHEK), 8 pM-33 nM (FIG. 15)
T5 construct: whole, on cells
T5 sequence (looked up): T2 sequence (looked up)

[6] = target: T5, human Nectin-4 on cells (CHO cells …); experiment: flow cytometry on normal differentiated human keratinocytes (NHEK), 8 pM-33 nM (FIG. 15); reference antibody of the comparison

binding result [1]: binds | binding result [2]: binds | binding result [3]: no binding (tested: 10 nM) | binding result [4]: binds | binding result [5]: binds
B1: Ch-15A7.5 (chimeric form of the anti-Nectin-4 monoclonal antibody 15A7.5) (antibody, V domains shown)
VH: EVKLVESGGGLVQPGGSRKLSCAASGFTFSNYGMAWVRQAPGKGPEWVAFISNLAYGINYADTVTGRFTISRENAKNTLYLEMRSLRSEDTAMYYCARGARATGWFAYWGQGTLVTVSA
VL: DIVMTQSQKFMSTSIGDRVSVTCKASQNVDTHVAWYQEKPGQSPKALIYSASYRYSGVPDRFTGSGSGTDFTLTISNVQSEDLADYFCQQYNSYPLTFGGGTKLEIK
notes: also called 15A7.5 mAb

binding result [2]: binds | binding result [6]: binds
B2: Ch-5A12.2 (chimeric form of the anti-Nectin-4 monoclonal antibody 5A12.2) (antibody, V domains shown)
VH: QIQLQQSGAELVKPGASVTLSCKTSGFTFNSMYISWLKQKPGQSLEWIAWIYAGTGGTRFNQKFTGKVQLTVDTSSSTAYMQFSSLTTDDSAIYYCAIRSGFVPMDYWGQGTSVTVSS
VL: SIVMTQTPKFLLVSAGDRVTITCKASQSVSNDVAWYQQKPGQSPKLLIYYASNRYTGVPDRFTGSGYGTDFTFTISTVQAEDLAVYFCQQDYSSPWTFGGGTKLEIK
notes: also called 5A12.2 mAb
